Assay [1] addresses cynomolgus FcγRI (cynomolgus). Description: SPR, receptor captured by anti-his, antibody injected, 1:1 fit. On the technique in general: Surface plasmon resonance follows binding to a sensor surface in real time, without labels.
The target of assay [2] is cynomolgus FcγRIII (cynomolgus) (UniProt Q8SPW2). Described as above.
The target in a further assay is human FcγRI (human) (UniProt P12314). Described as above.
Assay [3] has as its target human FcγRIIIa 158F allele (human) (UniProt P08637). Described as above.
For assay [4], the target named is human FcγRIIIa 158V allele (human) (UniProt P08637). The assay is described as above.
Sequence of human FcγRIIIa 158V allele (human) (P08637 17-208 F176V limits assumed): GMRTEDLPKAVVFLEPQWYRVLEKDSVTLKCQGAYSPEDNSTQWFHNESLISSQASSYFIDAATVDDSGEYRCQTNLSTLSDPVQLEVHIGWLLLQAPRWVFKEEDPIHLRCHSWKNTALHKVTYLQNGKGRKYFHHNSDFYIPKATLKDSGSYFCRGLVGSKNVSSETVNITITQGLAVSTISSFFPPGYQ
For assay [5], the target named is cynomolgus FcγRIIa (cynomolgus). Put plainly: SPR, receptor captured by anti-his, antibody injected, steady-state fit.
The target in assay [6] is cynomolgus FcγRIIb (cynomolgus). The description is as above.
A further assay addresses human FcγRIIa (human) (UniProt P12318). The assay is described as above.
A further assay deals with human FcγRIIb/c (human) (UniProt P31994). The assay is described as above.
Sequence of human FcγRIIb/c (human) (P31994 46-217 limits assumed): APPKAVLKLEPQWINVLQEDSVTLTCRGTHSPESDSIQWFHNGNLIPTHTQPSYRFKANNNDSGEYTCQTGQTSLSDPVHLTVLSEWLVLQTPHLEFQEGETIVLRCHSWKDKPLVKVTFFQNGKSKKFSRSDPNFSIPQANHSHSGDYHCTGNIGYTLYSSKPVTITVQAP

The record followed here is patent publication US20260201029A1.

Sequence of human FcγRIIa (human) (P12318 36-218 limits assumed): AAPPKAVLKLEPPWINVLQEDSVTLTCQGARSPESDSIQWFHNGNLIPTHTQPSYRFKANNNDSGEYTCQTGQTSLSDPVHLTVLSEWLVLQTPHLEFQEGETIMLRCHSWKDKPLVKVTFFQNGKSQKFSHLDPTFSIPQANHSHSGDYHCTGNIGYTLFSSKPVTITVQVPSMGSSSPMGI
Sequence of human FcγRI (human) (P12314 16-288 limits assumed): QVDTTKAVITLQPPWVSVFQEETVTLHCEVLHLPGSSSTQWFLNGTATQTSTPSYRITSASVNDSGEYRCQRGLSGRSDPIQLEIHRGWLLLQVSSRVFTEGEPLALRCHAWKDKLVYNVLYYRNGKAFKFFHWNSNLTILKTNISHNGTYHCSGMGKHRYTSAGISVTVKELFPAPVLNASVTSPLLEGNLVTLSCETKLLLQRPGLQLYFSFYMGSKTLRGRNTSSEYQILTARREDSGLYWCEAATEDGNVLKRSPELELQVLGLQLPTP
Sequence of human FcγRIIIa 158F allele (human) (P08637 17-208 limits assumed): as the sequence (P08637 17-208 F176V limits assumed) above, with V160F counted along it
Sequence of cynomolgus FcγRIII (cynomolgus) (Q8SPW2 17-208 limits assumed): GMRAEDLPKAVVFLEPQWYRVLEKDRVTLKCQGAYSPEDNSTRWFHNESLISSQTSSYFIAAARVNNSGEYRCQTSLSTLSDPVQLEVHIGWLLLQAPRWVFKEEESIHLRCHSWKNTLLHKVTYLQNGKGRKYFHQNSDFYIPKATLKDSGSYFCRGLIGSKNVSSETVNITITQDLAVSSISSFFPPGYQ

Turning to wt IgG1 control (antibody), the Fold increase in binding (vs wt IgG1 control) (in [1]; in the assay with human FcγRI (human); in assay [5]; in [6]; with human FcγRIIa (human); with human FcγRIIb/c (human)) was 1 fold each time. Further, the equilibrium dissociation constant (Kd) (commonly a measure of binding affinity in units of concentration) in assay [1] is 0.0015 µM; in assay [2], 0.395 µM; with human FcγRI (human), 0.0029 µM; in [3], 3.78 µM; in assay [4] it was 0.905 µM; in assay [5], 8.15 µM. Besides, the results for the Kd (in assay [6]; with human FcγRIIa (human); in the assay with human FcγRIIb/c (human)) were 4.45 µM, 9.33 µM and 11.2 µM, respectively.
